Tests used:
[1] = tested on: luciferase reporter bearing TCF/LEF binding elements; assay: TCF/LEF luciferase reporter assay in UMR-106 cells; format: cell-based, rat; conditions: UMR-106 cells, agent alone
Outline: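 UMR-106 cells in DMEM with 10% FCS, transfected with 0.3 μg TCF-Luc reporter plus 50 ng Renilla luciferase as internal control per well. […]. Triplicates, repeated at least three times.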

LRP6-PTH1R complex = molecular target: T1, LRP6-PTH1R complex (Rattus norvegicus, UniProt P25961); assay: Co-immunoprecipitation of endogenous LRP6 and PTH1R in UMR-106 cells; format: cell-based; conditions: IP with antibodies to LRP6, time-dependent
T1 construct: endogenous LRP6 and endogenous PTH1R in UMR-106 cells; endogenous in cells; host or cells: UMR-106
T1 sequence (P25961 27-591): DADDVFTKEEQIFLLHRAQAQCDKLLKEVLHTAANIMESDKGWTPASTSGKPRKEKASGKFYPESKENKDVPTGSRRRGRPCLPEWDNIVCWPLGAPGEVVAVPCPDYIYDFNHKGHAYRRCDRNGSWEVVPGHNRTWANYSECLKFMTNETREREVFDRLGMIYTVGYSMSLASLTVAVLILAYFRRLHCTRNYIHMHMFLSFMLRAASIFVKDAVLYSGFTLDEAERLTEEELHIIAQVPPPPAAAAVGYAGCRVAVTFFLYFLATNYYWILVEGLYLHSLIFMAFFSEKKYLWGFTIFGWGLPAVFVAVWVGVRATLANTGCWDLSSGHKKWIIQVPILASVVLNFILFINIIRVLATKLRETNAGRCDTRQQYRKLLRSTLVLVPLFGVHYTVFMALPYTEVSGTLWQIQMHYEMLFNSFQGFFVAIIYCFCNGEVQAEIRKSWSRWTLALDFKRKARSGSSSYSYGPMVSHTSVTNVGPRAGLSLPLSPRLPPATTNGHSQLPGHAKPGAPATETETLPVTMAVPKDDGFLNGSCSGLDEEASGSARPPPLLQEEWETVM
Procedure: (§1) Cells were harvested in cavitation buffer (5 mM HEPES, pH 7.4, 3 mM MgCl2, 1 mM EGTA, 250 mM sucrose) containing protease and phosphatase inhibitors and homogenized by nitrogen cavitation (200 p.s.i., for 5 minutes) in a cell disruption bomb (Parr Instrument Co.; Moline, Ill.). The cell homogenate was centrifuged twice at 700 g for 10 minutes to pellet the nuclei. The supernatant was further centrifuged at 100,000 g (Beckman SW50.1 rotor) for 1 hour to separate the membrane and cytosol fractions, and the resulting membrane pellet was washed three times with cavitation buffer before use in the assays (Zhang et al., Biochem. J. 343:541-9 (1999)). Immunoprecipitation and Western blot analysis of cell lysates were performed as described previously (Wan et al., Am. J. Pathol. 166:1379-92 (2005)).

PTH1R = molecular target: T2, PTH1R (Homo sapiens, UniProt Q03431); assay: Co-immunoprecipitation of exogenous LRP5/LRP6 constructs with PTH1R in HEK293 cells; format: cell-based; conditions: HEK293 cells
T2 sequence (Q03431 27-593): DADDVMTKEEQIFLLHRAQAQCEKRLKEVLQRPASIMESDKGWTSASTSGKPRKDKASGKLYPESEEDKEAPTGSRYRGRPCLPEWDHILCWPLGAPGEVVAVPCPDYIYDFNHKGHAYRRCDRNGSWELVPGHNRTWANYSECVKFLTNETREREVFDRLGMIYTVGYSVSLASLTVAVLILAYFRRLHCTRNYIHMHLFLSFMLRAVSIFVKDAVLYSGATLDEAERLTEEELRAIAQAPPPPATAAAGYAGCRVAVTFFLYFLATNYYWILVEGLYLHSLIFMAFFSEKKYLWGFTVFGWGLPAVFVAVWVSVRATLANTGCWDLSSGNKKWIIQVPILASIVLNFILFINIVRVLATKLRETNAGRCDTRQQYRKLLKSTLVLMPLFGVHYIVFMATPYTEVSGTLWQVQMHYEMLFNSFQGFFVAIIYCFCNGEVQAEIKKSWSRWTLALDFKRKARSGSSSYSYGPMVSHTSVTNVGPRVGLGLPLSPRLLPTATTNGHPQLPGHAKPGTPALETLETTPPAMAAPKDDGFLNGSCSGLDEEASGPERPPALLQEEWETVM
From the text: PTH1R tagged with HA was subcloned into pcDNA3.1. cDNAs from human LRP5 (Mao et al., Mol. Cell. 7:801-9 (2001)) and LRP6 (Tamai et al., Nature 407:530-35 (2000)) tagged with HA and VSVG were subcloned into pCMV and pCS2^+, respectively. LRP6N+T (LRP6 N-terminal plus the transmembrane domain) and LRP6T+C (LRP6 transmembrane domain plus C-terminal) tagged with VSVG were subcloned into pCS2^+. LRP6N+1479m, LRP6N+1490m, LRP6N+1493m and LRP6N+1496m were generated by mutagenesis of either the serine (at amino acid 1490 or amino acid 1496) or threonine (at amino acid 1479 or amino acid 1493) to alanine LRP6N-IgG was generated by fusing the LRP6 extracellular domain with IgG (Tamai et al., Nature 407:530-35 (2000)). si-GFP (Wan et al., Am. J. Pathol. 166:1379-92 (2005)) and si-LRP6 plasmids were generated using a BS/U6 vector. Briefly, a 22-nucleotide oligo (oligo 1) corresponding to nucleotides 2981 to 3002 of the human LRP6 coding region was first inserted into the BS/U6 vector digested with ApaI (blunted) and HindIII. The inverted motif that contains the six-nucleotide spacer and five Ts (oligo 2) was then subcloned into the HindIII and EcoRI sites of the intermediate plasmid to generate BS/U6/LRP5/6.
as §1

axin1 = assay: Axin1 recruitment to cell membrane, cell fractionation assay in mouse primary preosteoblasts; format: cell-based
Procedure: Osteoblasts were isolated by digestion of calvaria of newborn mice as described (Wang et al., J. Clin. Invest. 117:1616-26 (2007)). Briefly, calvaria were incubated with 10 ml of digestion solution containing 1.8 mg/ml of collagenase type I (Worthington Biochemical Corp.; Lakewood, N.J.) for 15 minutes at 37° C. under constant agitation. The supernatant was then harvested, replaced with fresh collagenase and the digestion repeated an additional 4 times. Digestion solutions containing the osteoblasts were pooled together. After centrifugation, osteoblasts were obtained and cultured in α-Minimal Essential Media (MEM) containing 10% FBS and 1% penicillin/streptomycin at 37° C. in a humidified incubator supplied with 5% CO2.
as §1, with “Immunoprecipitation and Western blot analysis of cell lysates were performed as described previously (Wan et al., Am. J. Pathol. 166:1379-92 (2005)).” left out

Substance: Parathyroid hormone [PTH]
- transcription of a luciferase reporter bearing TCF/LEF binding elements [1]: stimulated
- complex formation of PTH1R with endogenous LRP6 (LRP6-PTH1R complex): formed a complex with endogenous LRP6 in response to PTH in a time-dependent manner
- binding of exogenous PTH1R to exogenous LRP6 (PTH1R): enhances
- binding of LRP5 to PTH1R (PTH1R; exogenous LRP5 and PTH1R): did not enhance
- axin1 level on cell membrane (axin1): increased

Source: patent US20110256557A1, “IDENTIFYING PARATHYROID HORMONE AGONISTS AND ANTAGONISTS” (DISCOVERYBIOMED, INC., priority 2008, published 2011)
